In article PMC3632419:
Positions count from the first letter of the chain named. In names and notes the source's numbering stands.

B1: β-lactam synthetase (βLS) (Streptomyces clavuligerus) (protein)
chain: MGAPVLPAAFGFLASARTGGGRAPGPVFATRGSHTDIDTPQGERSLAATLVHAPSVAPDRAVARSLTGAPTTAVLAGEIYNRDELLSVLPAGPAPEGDAELVLRLLERYDLHAFRLVNGRFATVVRTGDRVLLATDHAGSVPLYTCVAPGEVRASTEAKALAAHRDPKGFPLADARRVAGLTGVYQVPAGAVMDIDLGSGTAVTHRTWTPGLSRRILPEGEAVAAVRAALEKAVAQRVTPGDTPLVVLSGGIDSSGVAACAHRAAGELDTVSMGTDTSNEFREARAVVDHLRTRHREITIPTTELLAQLPYAVWASESVDPDIIEYLLPLTALYRALDGPERRILTGYGADIPLGGMHREDRLPALDTVLAHDMATFDGLNEMSPVLSTLAGHWTTHPYWDREVLDLLVSLEAGLKRRHGRDKWVLRAAMADALPAETVNRPKLGVHEGSGTTSSFSRLLLDHGVAEDRVHEAKRQVVRELFDLTVGGGRHPSEVDTDDVVRSVADRTARGAA
B2: β-lactam synthetase (βLS) (Streptomyces clavuligerus; V446A) (protein)
chain: B1 chain with V446A
B3: β-lactam synthetase (βLS) (Streptomyces clavuligerus; V446G) (protein)
chain: B1 chain with V446G
B4: β-lactam synthetase (βLS) (Streptomyces clavuligerus; H447A) (protein)
chain: B1 chain with H447A

Experiments:
Experiment in all cases: coupled-enzyme assay of AMP release
Type in all cases: biochemical, Streptomyces clavuligerus
Conditions in all cases: ATP as co-substrate
[1] = substrate: C[C@H](CN[C@@H](CCCNC(=N)N)C(=O)O)C(=O)O
[2] = substrate: N=C(N)NCCC[C@H](NCCC(=O)O)C(=O)O
[3] = substrate: C[C@@H](CN[C@@H](CCCNC(=N)N)C(=O)O)C(=O)O

Row | Protein | Km [1] [µM] | kcat [1] [s⁻¹] | Km [2] [µM] | kcat [2] [s⁻¹] | Km [3] [µM] | kcat [3] [s⁻¹]
1 | B1 | 40 ± 10 | 0.032 ± 0.002 | 37 ± 1 | 0.87 ± 0.01 | 60 ± 10 | 0.023 ± 0.001
2 | B2 | 330 ± 20 | 0.014 ± 0.001 | 360 ± 20 | 0.28 ± 0.01 | 460 ± 40 | 0.34 ± 0.02
3 | B3 | 1900 ± 700 | 0.07 ± 0.002 | 610 ± 60 | 0.13 ± 0.01 | 1200 ± 100 | 0.13 ± 0.01
4 | B4 |  |  |  |  | 80 ± 60 | 0.013 ± 0.001
